Key:
[1] = tested on: U87 human glioblastoma cells; assay type: cell-based; conditions: MTT test, 0.05–50 µM, treated 24 h (method: overnight), washed, further 48 h (method: 72 h) at 37 °C, two independent experiments with four parallel measurements
Protocol: The in vitro cytostatic effect of the synthesized peptide (1) and daunomycin-peptide conjugates (2–8) was investigated on U87 human glioblastoma cells. The cells were treated with the peptide and conjugates at different concentrations (0.05–50 μM) for 24 h, and after a washing step, the cells were incubated for another […] at 37 °C. The cytostatic effect of the compounds was determined using the MTT test.
U87 human glioblastoma cell line was cultured in DMEM supplemented with 10% FBS, 2 mM L-glutamine, penicillin–streptomycin antibiotic mixture (50 IU/mL and 50 μg/mL, respectively), 1 mM sodium pyruvate, and 1% non-essential amino acid mixture. The cell culture was maintained at 37 °C in a humidified atmosphere with 5% CO2. The U87 cell line was a generous gift of Dr. József Tóvári (Department of Experimental Pharmacology, National Institute of Oncology, Budapest, Hungary).
For determining the cytostatic effect of the conjugates, U87 cells were grown to confluency and then divided into 96-well tissue culture plates with an initial cell number of 5.0 × 10^3 cells/well. After 24 h incubation at 37 °C, the cells were treated with the compounds overnight in the concentration range of 0.05–50 μM in 200 μL final volume containing 1.0 v/v% DMSO, whereas control cells were treated only with serum-free medium or with 1.0 v/v% DMSO at the same conditions. After the incubation, cells were washed twice with serum-free medium, then the cells were cultured for an additional 72 h in 10% serum-containing medium at 37 °C. Following that, MTT solution (at c = 0.37 mg/mL final concentration) was added to each well. The respiratory chain [32] and other electron transport systems reduced MTT and thereby formed non-water-soluble violet formazan crystals within the cells. The amount of these crystals can be determined by spectrophotometry and serves as an estimate for the number of mitochondria in addition to the number of living cells in the well [35]. After 3 h of incubation with MTT, the cells were centrifuged for 5 min at 2000 rpm and the supernatant was removed. The obtained formazan crystals were dissolved in DMSO (100 µL), and the optical density (OD) of the samples was measured at λ = 540 nm and 620 nm, respectively, using ELISA Reader (iEMS Reader, Labsystems, Finland). The OD620 values were subtracted from the OD540 values. The percent of cytostasis was calculated with the following equation:(1) Cytostatic effect (%)=1−ODtreated/ODcontrol×100 where the ODtreated and ODcontrol values correspond to the optical densities of the treated and the control wells, respectively. In each case, two independent experiments were carried out with four parallel measurements. Cytostasis was plotted as a function of concentration, and the half-maximal inhibitory concentration was calculated based on a sigmoid curve fitted on the data points using Microcal™ Origin 2018 software. IC50 represents the concentration of a compound that is required for 50% inhibition, expressed in micromolar units.

[2] = tested on: U87 human glioblastoma cells; assay: In vitro cellular uptake by flow cytometry; assay type: cell-based; conditions: 50 µM
Protocol: The in vitro cytostatic effect of any peptide–drug conjugate is influenced by many factors. One of the main effects is the cellular uptake of the conjugates by cells. Therefore, we compared the cellular uptake of the different conjugates on U87 glioblastoma cells. The cells were incubated with the conjugates (2, 10, and 50 µM) for 1 h. Then, after a washing step, the cells were treated with trypsin to remove the cell surface-bound conjugates and other cell surface structures that enable non-specific binding, so only the quantity of the conjugates actually entering the cells was detected by flow cytometry. […] The cellular uptake of the conjugates was concentration-dependent. […]
U87 cells were plated into 24-well tissue culturing plates with the initial cell number of 10^5 cells/well 24 h before the experiment. […] Data were recorded for 5000–10,000 cells at λex = 488 nm. The fluorescence mean was calculated. Daunomycin-positive cells were also gated from the living cell population, and the percentage of daunomycin-containing cells was calculated. The gating was determined from the untreated control cell count/fluorescence intensity histogram by adjusting the lowest fluorescence intensity value of the gated cells to the highest fluorescence intensity value of the live population of untreated control cells. Cells showing fluorescence intensities above this were considered as Dau-positive. […]

[3] = Degradation in rat liver lysosomal homogenate followed by HPLC-MS; assay type: in vitro ADME
Protocol: The conjugates were treated with lysosomal homogenate for 5 min, 1 h, 6 h, 24 h, and 72 h, and the degradation was followed by HPLC-MS. Control studies investigating conjugates in buffer (without lysosomal homogenate) were also performed, and for these, all conjugates were stable. […] At 6 h, it was the main drug-containing metabolite, and at 72 h, only this Dau-containing fragment could be detected. This time-dependent pattern was also observed in the case of conjugate 2, where Dau was attached to the side chain of Lys in position 15, and the formed smallest metabolite was H-Lys(Dau=Aoa)-OH. […] It is likely that, in this case, a large steric hindrance occurred, and the enzymes were not able to access the peptide bonds around ^10Lys. This observation might explain the discrepancy between the efficient cellular uptake and the lower anticancer activity of this conjugate.
A stock solution with a concentration of 2.5 μg/μL was prepared from the conjugates in distilled water, and this was diluted 100× with 0.2 M sodium acetate buffer (pH 5.03). The rat liver lysosomal homogenate (16.6 μg/μL) was diluted 20× with the same buffer, and then the two solutions were mixed in a 1:1 (protein:peptide, m/m) ratio. In each case, control measurements were also performed, in which buffer was added to the conjugates instead of the lysosomal homogenate. The solutions were stirred at 600 rpm at 37 °C in a thermostat (ThermoMixer, Eppendorf AG, Hamburg, Germany), and after 5 min, 1 h, 6 h, 24 h, and 72 h, 50 μL samples were taken. Each reaction was quenched with 5 μL formic acid and the samples were stored frozen until analysis.
The HPLC-MS analysis of the samples was performed with a Dionex 3000 HPLC-Q Exactive Focus hybrid quadrupole-orbitrap mass spectrometer (Thermo Fisher Scientific, Bremen, Germany). For separation, a Supelco Ascentis C18 column (3 μm, 100 Å, 150 × 2.1 mm; Merck, Darmstadt, Germany) and gradient elution (0 min 2% B, 1 min 2% B, 17 min 90% B; A eluent: 0.1% formic acid/distilled water, eluent B: 0.1% formic acid/acetonitrile + distilled water (80:20, v/v%), flow rate 0.2 mL/min, 40 °C) was used, and high-resolution mass spectra were recorded in the range of 200–1800 m/z. The data were analyzed using the Xcalibur program (Thermo Fisher Scientific).

SMILES | IC50 [1] [µM] | toxicity observed during the cellular uptake measurement (live cells in % of untreated control) [2] | release of Dau=Aoa-Gly-OH (in words) ([3]; pH 5.03, 37 °C) | smallest metabolite H-Lys(Dau=Aoa)-OH at 1 h ([3]; 1:1 protein:peptide m/m, 0.2 M sodium acetate pH 5.03, 37 °C, 1 h) | release of the smallest metabolite H-Lys(Dau=Aoa)-OH (in words) ([3]; pH 5.03, 37 °C, up to 72 h) | time of appearance of the Dau=Aoa-Thr-OH fragment ([3]; 1:1 protein:peptide m/m, 0.2 M sodium acetate pH 5.03, 37 °C) [h]
COc1cccc2c1C(=O)c1c(O)c3c(c(O)c1C2=O)C[C@@](O)(C(C)=NOCC(=O)NCCCC[C@H](NC(=O)CNC(=O)[C@H](CCCNC(=N)N)NC(=O)[C@H](CO)NC(=O)CNC(=O)CNC(=O)[C@H](Cc1ccc(O)cc1)NC(=O)[C@H](Cc1ccccc1)NC(=O)[C@H](Cc1ccccc1)NC(=O)[C@@H](NC(=O)CON=C(C)[C@]1(O)Cc2c(O)c4c(c(O)c2[C@@H](O[C@H]2C[C@H](N)[C@H](O)[C@H](C)O2)C1)C(=O)c1c(OC)cccc1C4=O)[C@@H](C)O)C(=O)N[C@@H](CCCNC(=N)N)C(=O)N[C@@H](CC(N)=O)C(=O)N[C@@H](CC(N)=O)C(=O)N[C@@H](Cc1ccccc1)C(=O)N[C@@H](CCCCN)C(=O)N[C@H](C(=O)N[C@@H](CCC(=O)O)C(=O)N[C@@H](CCC(=O)O)C(=O)N[C@@H](Cc1ccc(O)cc1)C(=O)O)[C@@H](C)O)C[C@@H]3O[C@H]1C[C@H](N)[C@H](O)[C@H](C)O1 [compound 7, Dau=Aoa-TFFYGGSRGK(Dau=Aoa)RNNFKTEEY-OH] | 7.8 ± 6.3 | slight toxicity | – | – | – | –
COc1cccc2c1C(=O)c1c(O)c3c(c(O)c1C2=O)C[C@@](O)(C(C)=NOCC(=O)NCC(=O)N[C@@H](Cc1ccccc1)C(=O)N[C@@H](CC(C)C)C(=O)NCC(=O)NCCCC[C@H](NC(=O)CNC(=O)[C@H](CCCNC(=N)N)NC(=O)[C@H](CO)NC(=O)CNC(=O)CNC(=O)[C@H](Cc1ccc(O)cc1)NC(=O)[C@H](Cc1ccccc1)NC(=O)[C@H](Cc1ccccc1)NC(=O)[C@@H](N)[C@@H](C)O)C(=O)N[C@@H](CCCNC(=N)N)C(=O)N[C@@H](CC(N)=O)C(=O)N[C@@H](CC(N)=O)C(=O)N[C@@H](Cc1ccccc1)C(=O)N[C@@H](CCCCN)C(=O)N[C@H](C(=O)N[C@@H](CCC(=O)O)C(=O)N[C@@H](CCC(=O)O)C(=O)N[C@@H](Cc1ccc(O)cc1)C(=O)O)[C@@H](C)O)C[C@@H]3O[C@H]1C[C@H](N)[C@H](O)[C@H](C)O1 [compound 9, H-TFFYGGSRGK(Dau=Aoa-GFLG)RNNFKTEEY-OH] | 16.9 ± 5.6 | slight toxicity | particularly slow | – | – | –
COc1cccc2c1C(=O)c1c(O)c3c(c(O)c1C2=O)C[C@@](O)(C(C)=NOCC(=O)NCCCC[C@H](NC(=O)CNC(=O)[C@H](CCCNC(=N)N)NC(=O)[C@H](CO)NC(=O)CNC(=O)CNC(=O)[C@H](Cc1ccc(O)cc1)NC(=O)[C@H](Cc1ccccc1)NC(=O)[C@H](Cc1ccccc1)NC(=O)[C@@H](N)[C@@H](C)O)C(=O)N[C@@H](CCCNC(=N)N)C(=O)N[C@@H](CC(N)=O)C(=O)N[C@@H](CC(N)=O)C(=O)N[C@@H](Cc1ccccc1)C(=O)N[C@@H](CCCCN)C(=O)N[C@H](C(=O)N[C@@H](CCC(=O)O)C(=O)N[C@@H](CCC(=O)O)C(=O)N[C@@H](Cc1ccc(O)cc1)C(=O)O)[C@@H](C)O)C[C@@H]3O[C@H]1C[C@H](N)[C@H](O)[C@H](C)O1 [compound 4, H-TFFYGGSRGK(Dau=Aoa)RNNFKTEEY-OH] | 24 ± 5.9 | – | – | not detectable | not efficiently released | –
COc1cccc2c1C(=O)c1c(O)c3c(c(O)c1C2=O)C[C@@](O)(C(C)=NOCC(=O)N[C@H](C(=O)N[C@@H](Cc1ccccc1)C(=O)N[C@@H](Cc1ccccc1)C(=O)N[C@@H](Cc1ccc(O)cc1)C(=O)NCC(=O)NCC(=O)N[C@@H](CO)C(=O)N[C@@H](CCCNC(=N)N)C(=O)NCC(=O)N[C@@H](CCCCN)C(=O)N[C@@H](CCCNC(=N)N)C(=O)N[C@@H](CC(N)=O)C(=O)N[C@@H](CC(N)=O)C(=O)N[C@@H](Cc1ccccc1)C(=O)N[C@@H](CCCCN)C(=O)N[C@H](C(=O)N[C@@H](CCC(=O)O)C(=O)N[C@@H](CCC(=O)O)C(=O)N[C@@H](Cc1ccc(O)cc1)C(=O)O)[C@@H](C)O)[C@@H](C)O)C[C@@H]3O[C@H]1C[C@H](N)[C@H](O)[C@H](C)O1 [compound 3, Dau=Aoa-TFFYGGSRGKRNNFKTEEY-OH] | 10.9 ± 2.8 | – | – | – | – | ≤ 1
